Numbering of substitutions follows the chain as printed. Names and notes keep the numbering of the source.
B1: anti-VEGF IgG2 N434S (antibody)
heavy: EVQLVESGGGLVQPGGSLRLSCAASGYTFTNYGMNWVRQAPGKGLEWVGWINTYTGEPTYAADFKRRFTFSLDTSKSTAYLQMNSLRAEDTAVYYCAKYPHYYGSSHWYFDVWGQGTLVTVSSASTKGPSVFPLAPCSRSTSESTAALGCLVKDYFPEPVTVSWNSGALTSGVHTFPAVLQSSGLYSLSSVVTVPSSNFGTQTYTCNVDHKPSNTKVDKTVERKCCVECPPCPAPPVAGPSVFLFPPKPKDTLMISRTPEVTCVVVDVSHEDPEVQFNWYVDGVEVHNAKTKPREEQFNSTFRVVSVLTVVHQDWLNGKEYKCKVSNKGLPAPIEKTISKTKGQPREPQVYTLPPSREEMTKNQVSLTCLVKGFYPSDIAVEWESNGQPENNYKTTPPMLDSDGSFFLYSKLTVDKSRWQQGNVFSCSVMHEALHSHYTQKSLSLSPGK
light: not shown
B2: anti-VEGF IgG2 N434T (antibody)
heavy: B1 heavy with S436T
light: not shown
B3: anti-VEGF IgG2 M428L/N434S (antibody)
heavy: B1 heavy with M430L
light: not shown
B4: anti-VEGF IgG2 N434K (antibody)
heavy: B1 heavy with S436K
light: not shown
B5: anti-VEGF IgG2 N434P (antibody)
heavy: B1 heavy with S436P
light: not shown
B6: anti-VEGF IgG2 N434R (antibody)
heavy: B1 heavy with S436R
light: not shown
B7: anti-VEGF IgG2 N434V (antibody)
heavy: B1 heavy with S436V
light: not shown
notes: also called 434V in IgG2
B8: anti-VEGF IgG2 N434D (antibody)
heavy: B1 heavy with S436D
light: not shown
B9: anti-VEGF IgG2 N434E (antibody)
heavy: B1 heavy with S436E
light: not shown

Molecular target: T1, human FcRn (His-tagged alpha chain with beta 2 microglobulin) (human, UniProt P55899 24-297; P61769 21-119, limits assumed)
T1 construct: also called hFcRn; not shown: His tag
Experiment: Biacore, human FcRn on chip, pH 6.0
Excerpt: A cycle with antibody and buffer only provided baseline response, which was subtracted from each sample sensorgram.

T1 sequence (P55899 24-297 limits assumed, chain 1 of 2): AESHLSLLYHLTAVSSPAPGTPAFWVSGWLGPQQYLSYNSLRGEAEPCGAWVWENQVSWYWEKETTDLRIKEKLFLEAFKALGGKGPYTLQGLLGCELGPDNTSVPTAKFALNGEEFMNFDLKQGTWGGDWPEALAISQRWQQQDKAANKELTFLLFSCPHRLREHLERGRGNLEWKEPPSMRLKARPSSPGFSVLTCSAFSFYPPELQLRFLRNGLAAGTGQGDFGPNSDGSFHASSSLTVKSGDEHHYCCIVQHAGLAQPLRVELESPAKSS
T1 sequence (P61769 21-119 limits assumed, chain 2 of 2): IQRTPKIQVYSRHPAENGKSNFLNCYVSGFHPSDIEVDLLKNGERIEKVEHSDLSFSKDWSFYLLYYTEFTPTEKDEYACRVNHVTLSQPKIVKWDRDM

Binder | fold FcRn binding relative to WT IgG2 | other results
B1 | – | fold FcRn binding: 4.9 fold
B2 | – | binding result: binds
B3 | – | fold FcRn binding: 14.8 fold
B4 | < 0.5 fold | –
B5 | < 0.5 fold | –
B6 | < 0.5 fold | –
B7 | < 0.5 fold | –
B8 | < 0.5 fold | –
B9 | < 0.5 fold | –
